For assay [1], the target named is N2.1/ROMK chimera with the N375PNF tract replaced with AAAA. Briefly: cell-based or functional assay.
For assay [2], the target named is T1, myc-tagged ARH (human, UniProt Q5SW96 1-308, limits assumed).
T1 construct: Expressed in COS-7 cells
T1 sequence: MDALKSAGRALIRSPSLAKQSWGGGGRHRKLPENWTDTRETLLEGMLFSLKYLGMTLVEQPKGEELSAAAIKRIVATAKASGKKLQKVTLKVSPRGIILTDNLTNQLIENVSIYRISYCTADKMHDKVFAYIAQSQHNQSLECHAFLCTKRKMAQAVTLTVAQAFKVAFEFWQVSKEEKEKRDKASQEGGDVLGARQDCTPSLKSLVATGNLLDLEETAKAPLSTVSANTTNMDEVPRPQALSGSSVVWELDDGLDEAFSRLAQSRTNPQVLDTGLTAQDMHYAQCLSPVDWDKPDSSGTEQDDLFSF
Briefly: co-immunoprecipitation from COS-7 cells. On the procedure: Using immunofluorescent confocal microscopy it was determined that ARH is predominately expressed in the distal nephron, where it co-localizes with ROMK in subapical and perinuclear compartments (FIG. 2A). See Example D. It was also determined that ROMK co-immunoprecipitates with ARH on anti-ARH antibody-bound beads but not with an unrelated IgG (FIG. 2B). The specificity of the ARH-ROMK co-immunoprecipitation was corroborated by similar studies with different antibodies, HA-epitope-tagged ROMK and myc-tagged-ARH in COS-7 cells (FIGS. 2C & D). Importantly, alanine replacement of the NPNF motif in ROMK completely abrogated the ARH-ROMK co-immunoprecipitation.

In assay [1], “ARH co-expressed in COS-7 cells (from UniProt Q5SW96 1-308)” displayed a surface expression of 100%.

B1: HA-epitope-tagged mutant ROMK lacking the NPXF motif (alanine replacement of the NPNF motif) (other)
chain: MGASERSVFRVLIRALTERMFKHLRRWFITHIFGRSRQRARLVSKEGRCNIEFGNVDAQSRFIFFVDIWTTVLDLKWRYKMTVFITAFLGSWFLFGLLWYVVAYVHKDLPEFYPPDNRTPCVENINGMTSAFLFSLETQVTIGYGFRFVTEQCATAIFLLIFQSILGVIINSFMCGAILAKISRPKKRAKTITFSKNAVISKRGGKLCLLIRVANLRKSLLIGSHIYGKLLKTTITPEGETIILDQTNINFVVDAGNENLFFISPLTIYHIIDHNSPFFHMAAETLSQQDFELVVFLDGTVESTSATCQVRTSYVPEEVLWGYRFVPIVSKTKEGKYRVDFHNFGKTVEVETPHCAMCLYNEKDARARMKRGYDAAAAVLSEVDETDDTQM
notes: Expressed in COS-7 cells
As to B1, the binding result in assay [2] is recorded as “no binding”.

Values taken from patent US20100093634A1 (UNIVERSITY OF MARYLAND BALTIMORE, published 2010).
